Data set [1] concerns the target T1, TwinStrep-BICD2 WT (mouse), Q921C5.
T1 chain: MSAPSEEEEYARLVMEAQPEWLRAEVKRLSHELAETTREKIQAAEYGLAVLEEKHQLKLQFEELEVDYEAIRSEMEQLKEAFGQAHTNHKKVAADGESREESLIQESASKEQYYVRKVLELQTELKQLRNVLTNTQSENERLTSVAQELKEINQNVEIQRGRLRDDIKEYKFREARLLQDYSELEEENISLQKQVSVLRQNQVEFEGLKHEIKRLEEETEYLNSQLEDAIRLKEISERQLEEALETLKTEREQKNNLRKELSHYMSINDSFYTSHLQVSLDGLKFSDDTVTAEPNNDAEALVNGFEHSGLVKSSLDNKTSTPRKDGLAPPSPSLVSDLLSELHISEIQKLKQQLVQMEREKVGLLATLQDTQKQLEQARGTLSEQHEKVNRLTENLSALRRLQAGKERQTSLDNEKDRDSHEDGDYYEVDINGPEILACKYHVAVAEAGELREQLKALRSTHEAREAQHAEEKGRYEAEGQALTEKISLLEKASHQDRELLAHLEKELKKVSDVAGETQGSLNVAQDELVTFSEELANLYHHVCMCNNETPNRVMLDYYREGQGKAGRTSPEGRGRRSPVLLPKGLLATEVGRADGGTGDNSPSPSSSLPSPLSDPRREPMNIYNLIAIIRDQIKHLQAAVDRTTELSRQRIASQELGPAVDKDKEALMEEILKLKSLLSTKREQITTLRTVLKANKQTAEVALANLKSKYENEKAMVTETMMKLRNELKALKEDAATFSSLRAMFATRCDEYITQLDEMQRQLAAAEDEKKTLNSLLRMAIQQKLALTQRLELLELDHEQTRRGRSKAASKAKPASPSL
The data set is described as follows: SEC-MALS. As to conditions: remark: other sources report otherwise. On the technique in general: In gel filtration, larger molecules generally elute earlier.

The data set “SEC-MALS” concerns the molecule itself. The data set is described as follows: SEC-MALS.

By stoichiometry N is commonly meant a count of units in the complex or per binding partner.

B1: TwinStrep-BICD2 WT, Q921C5 1-820 (natural protein)
chain: MSAPSEEEEYARLVMEAQPEWLRAEVKRLSHELAETTREKIQAAEYGLAVLEEKHQLKLQFEELEVDYEAIRSEMEQLKEAFGQAHTNHKKVAADGESREESLIQESASKEQYYVRKVLELQTELKQLRNVLTNTQSENERLTSVAQELKEINQNVEIQRGRLRDDIKEYKFREARLLQDYSELEEENISLQKQVSVLRQNQVEFEGLKHEIKRLEEETEYLNSQLEDAIRLKEISERQLEEALETLKTEREQKNNLRKELSHYMSINDSFYTSHLQVSLDGLKFSDDTVTAEPNNDAEALVNGFEHSGLVKSSLDNKTSTPRKDGLAPPSPSLVSDLLSELHISEIQKLKQQLVQMEREKVGLLATLQDTQKQLEQARGTLSEQHEKVNRLTENLSALRRLQAGKERQTSLDNEKDRDSHEDGDYYEVDINGPEILACKYHVAVAEAGELREQLKALRSTHEAREAQHAEEKGRYEAEGQALTEKISLLEKASHQDRELLAHLEKELKKVSDVAGETQGSLNVAQDELVTFSEELANLYHHVCMCNNETPNRVMLDYYREGQGKAGRTSPEGRGRRSPVLLPKGLLATEVGRADGGTGDNSPSPSSSLPSPLSDPRREPMNIYNLIAIIRDQIKHLQAAVDRTTELSRQRIASQELGPAVDKDKEALMEEILKLKSLLSTKREQITTLRTVLKANKQTAEVALANLKSKYENEKAMVTETMMKLRNELKALKEDAATFSSLRAMFATRCDEYITQLDEMQRQLAAAEDEKKTLNSLLRMAIQQKLALTQRLELLELDHEQTRRGRSKAASKAKPASPSL
For the molecule B1, the stoichiometry N in data set [1] came out at 2.

B2: TwinStrep-BICD2 S102D (natural protein)
chain: MSAPSEEEEYARLVMEAQPEWLRAEVKRLSHELAETTREKIQAAEYGLAVLEEKHQLKLQFEELEVDYEAIRSEMEQLKEAFGQAHTNHKKVAADGESREEDLIQESASKEQYYVRKVLELQTELKQLRNVLTNTQSENERLTSVAQELKEINQNVEIQRGRLRDDIKEYKFREARLLQDYSELEEENISLQKQVSVLRQNQVEFEGLKHEIKRLEEETEYLNSQLEDAIRLKEISERQLEEALETLKTEREQKNNLRKELSHYMSINDSFYTSHLQVSLDGLKFSDDTVTAEPNNDAEALVNGFEHSGLVKSSLDNKTSTPRKDGLAPPSPSLVSDLLSELHISEIQKLKQQLVQMEREKVGLLATLQDTQKQLEQARGTLSEQHEKVNRLTENLSALRRLQAGKERQTSLDNEKDRDSHEDGDYYEVDINGPEILACKYHVAVAEAGELREQLKALRSTHEAREAQHAEEKGRYEAEGQALTEKISLLEKASHQDRELLAHLEKELKKVSDVAGETQGSLNVAQDELVTFSEELANLYHHVCMCNNETPNRVMLDYYREGQGKAGRTSPEGRGRRSPVLLPKGLLATEVGRADGGTGDNSPSPSSSLPSPLSDPRREPMNIYNLIAIIRDQIKHLQAAVDRTTELSRQRIASQELGPAVDKDKEALMEEILKLKSLLSTKREQITTLRTVLKANKQTAEVALANLKSKYENEKAMVTETMMKLRNELKALKEDAATFSSLRAMFATRCDEYITQLDEMQRQLAAAEDEKKTLNSLLRMAIQQKLALTQRLELLELDHEQTRRGRSKAASKAKPASPSL
B2: in “SEC-MALS”, the “stoichiometry N” value amounted to 2.

(Values after publication doi:10.1101/2021.11.04.467245 (bioRxiv, 2021).)
